Results as given in publication PMC11258540 (Molecular Cell, 2024).
Residue numbers refer to the chain shown, from its start. Names and notes keep the numbering of the source. Where two headings read alike, the source gives them in different places.

B1: human PUS3 D118A, catalytically inactive variant (enzyme, UniProt Q9BZE2 1-481, looked up)
chain: MAYNDTDRNQTEKLLKRVRELEQEVQRLKKEQAKNKEDSNIRENSAGAGKTKRAFDFSAHGRRHVALRIAYMGWGYQGFASQENTNNTIEEKLFEALTKTRLVESRQTSNYHRCGRTAKGVSAFGQVISLDLRSQFPRGRDSEDFNVKEEANAAAEEIRYTHILNRVLPPDIRILAWAPVEPSFSARFSCLERTYRYFFPRADLDIVTMDYAAQKYVGTHDFRNLCKMDVANGVINFQRTILSAQVQLVGQSPGEGRWQEPFQLCQFEVTGQAFLYHQVRCMMAILFLIGQGMEKPEIIDELLNIEKNPQKPQYSMAVEFPLVLYDCKFENVKWIYDQEAQEFNITHLQQLWANHAVKTHMLYSMLQGLDTVPVPCGIGPKMDGMTEWGNVKPSVIKQTSAFVEGVKMRTYKPLMDRPKCQGLESRIQHFVRRGRIEHPHLFHEEETKAKRDCNDTLEEENTNLETPTKRVCVDTEIKSII
B2: human PUS3 H355T/T359A (enzyme, UniProt Q9BZE2 1-481, looked up)
chain: B1 chain with A118D, H355T, T359A

Assays:
[1] = target: the molecule itself; experiment: SEC
[2] = target: the molecule itself

Row | Protein | stoichiometry N [1] | stoichiometry N [2]
1 | B1 | 2 | 
2 | B2 |  | 2
